One substance from patent US20260076602A1, “SYSTEM AND METHOD FOR RAPID ASSESSMENT OF RENAL FUNCTION” (Mayo Foundation for Medical Education and Research, priority 2018, published 2026) can be followed below.

This series is described as follows: Normalized fluorescence from retinal vasculature following IV injection of fluorescent tracer agents (renal clearance). To be noted: period of 15 min after IV injection, FIG. 12A.

Experimental: Normalized fluorescence from retinal vasculature following sequential IV FITC-inulin (green) and Rhod-Dex (500 kD, red) using Phoenix Research Systems Micron imaging may be obtained. Traces synchronized to tail-vein injection (T=0 min). […] Inulin clearance based on traces of normalized fluorescence and previous calibration of Inulin/Rhod-Dex ratio in WT mouse whole blood (insert). Dashed black lines=exponential and linear (insert) curve fits to inulin concentration.
As an example, AK-Fluor®, a fluorescein-based substance, may be used as a first tracer agent that is substantially cleared by healthy renal function and emits a first fluorescent light when excited by a first excitation light. […] In some examples, a AK-Fluor® of 10^−7 g/ml is injected into the patient during an iGFR procedure. […] As shown, in addition to recording the fluorescence signals representing the fluorescent intensities of a first tracer agent and a second tracer agent, a decay rate of the first tracer agent may also be fitted to a first exponential order. […] As another example, FITC-inulin may also be used as a first tracer agent that is substantially cleared by healthy renal function and emits a first fluorescent light when excited by a first excitation light.

On to FITC-inulin, for which the “fluorescence of tracer agent after injection (clearance by healthy renal function)” value is “decrease over a period of 15 min after injection”.
